Measurements reported in paper PMC4657161 (The Journal of Cell Biology, 2015).

Target: T1, Rab40A (on the HuProt array) (human, UniProt Q8WXH6 1-277)
T1 sequence: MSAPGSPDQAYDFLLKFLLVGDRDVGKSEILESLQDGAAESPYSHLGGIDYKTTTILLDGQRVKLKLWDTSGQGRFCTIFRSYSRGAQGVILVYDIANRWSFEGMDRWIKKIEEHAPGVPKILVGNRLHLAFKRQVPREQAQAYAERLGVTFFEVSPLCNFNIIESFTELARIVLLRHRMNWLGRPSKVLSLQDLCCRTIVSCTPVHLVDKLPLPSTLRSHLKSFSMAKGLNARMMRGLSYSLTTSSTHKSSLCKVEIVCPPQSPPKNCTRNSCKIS
Assay: peptide or protein array

B1: HIS-RhoU (natural protein)
chain: not shown
  binding result: binds
